Measured values as given in US20040254364A1.

Key:
[1] = molecular target: Manduca sexta brush border membrane vesicles (BBMV); assay: 125I-labelled phage added to 10 µg of BBMV, no competitor
[2] = molecular target: Manduca sexta brush border membrane vesicles (BBMV); assay: micropanning on 100 µg of BBMV; control sample, set to 1.0 by definition
[3] = molecular target: Bovine serum albumin (bovine) (UniProt P02769); assay: micropanning in microtiter wells; control sample, set to 1.0 by definition
[4] = molecular target: Manduca sexta brush border membrane vesicles (BBMV); assay: 125I-labelled phage added to 10 µg of BBMV, no competitor, 105,252 cpm added
[5] = molecular target: Manduca sexta brush border membrane vesicles (BBMV); assay: 125I-labelled phage added to 10 µg of BBMV with 100-fold excess of unlabeled Cry1Ac
[6] = molecular target: Manduca sexta brush border membrane vesicles (BBMV); assay: 125I-labelled phage on 10 µg of BBMV, competitor 100-fold excess of unlabeled Cry1Ac
[7] = molecular target: Manduca sexta brush border membrane vesicles (BBMV); assay: 125I-labelled phage added to 10 µg of BBMV with 100-fold excess of unlabeled Cry1Ac, 105,252 cpm added
[8] = molecular target: Manduca sexta brush border membrane vesicles (BBMV); assay: micropanning on 100 µg of BBMV with an excess of free Cry1Ac as competitor, yield relative to BBMV without competitor
[9] = molecular target: Manduca sexta brush border membrane vesicles (BBMV); assay: 125I-labelled control phage added to 10 µg of BBMV, no competitor
[10] = molecular target: Manduca sexta brush border membrane vesicles (BBMV); assay: 125I-labelled control phage added to 10 µg of BBMV, no competitor, 62,319 cpm added
[11] = molecular target: Manduca sexta brush border membrane vesicles (BBMV); assay: 125I-labelled control phage added to 10 µg of BBMV with 100-fold excess of unlabeled Cry1Ac
[12] = molecular target: Manduca sexta brush border membrane vesicles (BBMV); assay: 125I-labelled control phage added to 10 µg of BBMV with 100-fold excess of unlabeled Cry1Ac, 62,319 cpm added
[13] = molecular target: Manduca sexta brush border membrane vesicles (BBMV); assay: 125I-labelled toxin added to 10 µg of BBMV, no competitor
[14] = molecular target: Manduca sexta brush border membrane vesicles (BBMV); assay: 125I-labelled toxin added to 10 µg of BBMV, no competitor, 98,242 cpm added
[15] = molecular target: Manduca sexta brush border membrane vesicles (BBMV); assay: 125I-labelled toxin added to 10 µg of BBMV with 100-fold excess of unlabeled Cry1Ac
[16] = molecular target: Manduca sexta brush border membrane vesicles (BBMV); assay: 125I-labelled toxin on 10 µg of BBMV, competitor 100-fold excess of unlabeled Cry1Ac
[17] = molecular target: Manduca sexta brush border membrane vesicles (BBMV); assay: 125I-labelled toxin added to 10 µg of BBMV with 100-fold excess of unlabeled Cry1Ac, 98,242 cpm added

Chain of Bovine serum albumin (bovine) (P02769 25-607 limits assumed): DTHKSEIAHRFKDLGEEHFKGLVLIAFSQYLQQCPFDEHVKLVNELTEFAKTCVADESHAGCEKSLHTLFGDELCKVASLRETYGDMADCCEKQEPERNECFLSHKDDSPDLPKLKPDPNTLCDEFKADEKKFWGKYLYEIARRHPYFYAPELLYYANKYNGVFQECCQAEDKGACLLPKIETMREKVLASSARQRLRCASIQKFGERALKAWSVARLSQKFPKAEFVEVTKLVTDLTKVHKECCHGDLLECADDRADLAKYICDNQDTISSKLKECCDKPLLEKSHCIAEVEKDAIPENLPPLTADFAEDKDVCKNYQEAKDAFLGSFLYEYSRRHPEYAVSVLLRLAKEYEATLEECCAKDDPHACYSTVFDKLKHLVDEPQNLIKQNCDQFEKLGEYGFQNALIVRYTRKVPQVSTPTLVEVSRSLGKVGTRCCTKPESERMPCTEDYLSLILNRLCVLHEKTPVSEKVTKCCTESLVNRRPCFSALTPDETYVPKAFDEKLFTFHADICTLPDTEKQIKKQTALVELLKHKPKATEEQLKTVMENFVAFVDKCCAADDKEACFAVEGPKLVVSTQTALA

| Substance | % cpm bound [1] [%] | relative yield (relative to control sample) [2] | relative yield (relative to control sample) [3] | mean cpm bound (n = 2) [4] [cpm] | % cpm bound [5] [%] | % competition [6] [%] | mean cpm bound (n = 2) [7] [cpm] | relative yield (relative to control sample) [8] | % cpm bound [9] [%] | mean cpm bound (n = 2) [10] [cpm] | % cpm bound [11] [%] | mean cpm bound (n = 2) [12] [cpm] | % cpm bound [13] [%] | mean cpm bound (n = 2) [14] [cpm] | % cpm bound [15] [%] | % competition [16] [%] | mean cpm bound (n = 2) [17] [cpm] |
| --- | --- | --- | --- | --- | --- | --- | --- | --- | --- | --- | --- | --- | --- | --- | --- | --- | --- |
| 1Ac-fUSE5 phage (filamentous fd phage displaying the Cry1Ac-cpIII fusion protein) (from UniProt P05068 1-611; P03661 48-424) | 11.7 | 1 | 1 | 12300 | 10.7 | 8.5 | 11200 | 1.7 | – | – | – | – | – | – | – | – | – |
| WT-fUSE5 phage (fUSE5 vector phage without insert, grown in JM109) (from UniProt P03661 19-424) | – | 1 | 1 | – | – | – | – | 0.24 | 6.1 | 3780 | 7.6 | 4740 | – | – | – | – | – |
| purified, trypsin-activated HD-73 Cry1Ac toxin (65 kDa) from Bacillus thuringiensis subsp. kurstaki (from UniProt P05068 29-623) | – | – | – | – | – | – | – | – | – | – | – | – | 12.9 | 12700 | 4.3 | 66.5 | 4260 |
